In assay [1] the target is monoclonal mouse IgG1 anti human CRP antibody B08. Nature of the assay: swCNT-FET displacement of peptide 80715-Au nanoparticle complex from immobilised B08; CRP 800 nM in PBS.
The target is the same in assay [2]. In words: swCNT-FET displacement of peptide 80715-Au nanoparticle complex from immobilised B08; CRP 1.56 nM in PBS.
Assay [3] has the same target. Nature of the assay: swCNT-FET displacement of peptide 80715-Au nanoparticle complex from immobilised B08; CRP 100 nM in PBS.
Assay [4] shares this target. Nature of the assay: swCNT-FET displacement of peptide 80715-Au nanoparticle complex from immobilised B08; CRP 3 pM in PBS.
For assay [5] the target is unchanged. In words: swCNT-FET displacement of peptide 80715-Au nanoparticle complex from immobilised B08; CRP 195 pM in PBS.
The target is the same in assay [6]. Nature of the assay: swCNT-FET displacement of peptide 80715-Au nanoparticle complex from immobilised B08; CRP 381 fM in PBS.
Assay [7] shares this target. In words: swCNT-FET displacement of peptide 80715-Au nanoparticle complex from immobilised B08; CRP 24 pM in PBS.
Assay [8] shares this target. Nature of the assay: swCNT-FET displacement of peptide 80715-Au nanoparticle complex from immobilised B08; CRP 12.5 nM in PBS.

B1: biomarker C-reactive protein (CRP) (protein, human, UniProt P02741 19-224, looked up)
chain: QTDMSRKAFVFPKESDTSYVSLKAPLTKPLKAFTVCLHFYTELSSTRGYSIFSYATKRQDNEILIFWSKDIGYSFTVGGSEILFEVPEVTVAPVHICTSWESASGIVEFWVDGKPRVRKSLKKGYTVGAEASIILGQEQDSFGGNFEGSQSLVGDIGNVNMWDFVLSPDEINTIYLGGPFSPNVLNWRALKYEVQGEVFTKPQLWP
As for B1, the ΔV (V) is -0.027 V in assay [1]; -0.02 V in assay [2]; -0.024 V in assay [3]; -0.013 V in assay [4]; -0.017 V in assay [5]; -0.009 V in assay [6]. For the same molecule, the ΔV (V) was -0.016 V in assay [7] and -0.022 V in assay [8].
